Data from the supplement of paper PMC10567573.

B1: ZNF8 (parent)
chain: KPYTCSVCGKSFSRTTCLFLHLRT

Variants of: B1
Experiment: protein stability index of a GFP-peptide fusion (GPS, HEK-293T) (PSI 1-6); higher = more stable
Conditions: c terminus: a fixed tail appended
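Note: lentivirally expressed fusions sorted by FACS into six bins by GFP to DsRed ratio, PSI derived from sequencing read proportions per bin multiplied by bin number.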

Row | Variant | protein stability index
1 | KPYTCSVCGKIFSRTTCLFLHLRT | 2.33
2 | KPYTCSVCGKPFSRTTCLFLHLRT | 1.72
3 | KPYTCSVCGKRFSRTTCLFLHLRT | 2.12
4 | KPYTCSVCGKEFSRTTCLFLHLRT | 2.67
5 | KPYTCSVCGKCFSRTTCLFLHLRT | 1.91
6 | KPYTCSVCGKWFSRTTCLFLHLRT | 1.71
7 | KPYTCSVCGKDFSRTTCLFLHLRT | 1.88
8 | KPYTCSVCGKSFSRTTCLFLCLRT | 2.37
9 | KPYTCSVCGKSFSRTTCLFLRLRT | 1.4
10 | KPYTCSVCGKSFSRTTCLFLGLRT | 1.94
11 | KPYTCSVCGKSFSRTTCLFLWLRT | 1.75
12 | KPYTCSVCGKSFSRTTCLFLYLRT | 1.57
13 | KPYTCSVCGKSFSRTTCLFLALRT | 2.18
14 | KPYTCSVCGKSFSRTTCLFLKLRT | 2.04
15 | KPYTCSVCGKSFSRTTCLFLTLRT | 1.56
16 | KPYTCSVCGKSFSRTTCLFLQLRT | 2.28
17 | KPYTCSVCGKSFSRTTCLFLHLHT | 2.32
18 | KPYTCSVCGKSFSRTTCLFLHLPT | 2.5
19 | KPYTCSVCGKSFSRTTCLFLHLQT | 2.59
20 | KPYTCSVCGKSFSRTTCLFLHLKT | 2.06
21 | KPYTCSVCGKSFSRTTCLFLHLWT | 1.75
22 | KQYTCSVCGKSFSRTTCLFLHLRT | 1.87
23 | KCYTCSVCGKSFSRTTCLFLHLRT | 1.86
24 | KWYTCSVCGKSFSRTTCLFLHLRT | 2.42

Row | Variant | protein stability index
25 | KFYTCSVCGKSFSRTTCLFLHLRT | 1.48
26 | KEYTCSVCGKSFSRTTCLFLHLRT | 2.55
27 | KLYTCSVCGKSFSRTTCLFLHLRT | 1.74
28 | KHYTCSVCGKSFSRTTCLFLHLRT | 2.5
29 | KTYTCSVCGKSFSRTTCLFLHLRT | 2.19
30 | KPYTCSVCNKSFSRTTCLFLHLRT | 1.49
31 | KPYTCSVCRKSFSRTTCLFLHLRT | 2.2
32 | KPYTCSVCAKSFSRTTCLFLHLRT | 2.76
33 | KPYTCSVCSKSFSRTTCLFLHLRT | 1.72
34 | SPYTCSVCGKSFSRTTCLFLHLRT | 1.93
35 | HPYTCSVCGKSFSRTTCLFLHLRT | 2.1
36 | DPYTCSVCGKSFSRTTCLFLHLRT | 2.46
37 | VPYTCSVCGKSFSRTTCLFLHLRT | 1.72
38 | YPYTCSVCGKSFSRTTCLFLHLRT | 2.24
39 | PPYTCSVCGKSFSRTTCLFLHLRT | 1.91
40 | MPYTCSVCGKSFSRTTCLFLHLRT | 2.22
41 | QPYTCSVCGKSFSRTTCLFLHLRT | 2.39
42 | KPYTCSVCGKSFSRTTCLQLHLRT | 2.54
43 | KPYTCSVCGKSFSRTTCLSLHLRT | 2.03
44 | KPYTCSVCGKSFSRTTCLGLHLRT | 1.93
45 | KPYTCSVCGKSFSRTTCLPLHLRT | 2.45
46 | KPYTCSVCGKSFSRTTCLLLHLRT | 1.73
47 | KPYTCSVCGKSFSRTTCLCLHLRT | 3.11
48 | KPYTCSVCGKSFSRTTCLELHLRT | 2.57

Row | Variant | protein stability index
49 | KPYTCSVCGKSFSRTTCLTLHLRT | 1.78
50 | KPYTCSVCGKSFSRTTCLKLHLRT | 1.93
51 | KPYTCSVFGKSFSRTTCLFLHLRT | 4.22
52 | KPYTCSVCGKSPSRTTCLFLHLRT | 1.75
53 | KPYTCSVCGKSSSRTTCLFLHLRT | 1.87
54 | KPYTCSVCGKSLSRTTCLFLHLRT | 1.83
55 | KPYTCSVCGKSRSRTTCLFLHLRT | 1.62
56 | KPYTCSVCGKSMSRTTCLFLHLRT | 2.45
57 | KPYTCSVCGKSQSRTTCLFLHLRT | 1.58
58 | KPYTCSVCGKSCSRTTCLFLHLRT | 1.54
59 | KPYTCSVCGKSFQRTTCLFLHLRT | 2.38
60 | KPYTCSVCGKSFKRTTCLFLHLRT | 2.06
61 | KPYTCSVCGKSFVRTTCLFLHLRT | 2.15
62 | KPYTCSVCGKSFLRTTCLFLHLRT | 1.48
63 | KPYTCSVCGKSFDRTTCLFLHLRT | 1.94
64 | KPYTCSVCGKSFFRTTCLFLHLRT | 1.82
65 | KPYTCSVCGKSFARTTCLFLHLRT | 2.43
66 | KPYTCSVCGKSFERTTCLFLHLRT | 2.57
67 | KPYTCSVCGKSFWRTTCLFLHLRT | 1.87
68 | KPYTCSVCGKSFTRTTCLFLHLRT | 1.86
69 | KPYTCSVCGKSFGRTTCLFLHLRT | 1.62
70 | KPYTESVCGKSFSRTTCLFLHLRT | 3.3
71 | KPYTNSVCGKSFSRTTCLFLHLRT | 2.43
72 | KPYTFSVCGKSFSRTTCLFLHLRT | 2.46

Row | Variant | protein stability index
73 | KPYTYSVCGKSFSRTTCLFLHLRT | 2.21
74 | KPYTISVCGKSFSRTTCLFLHLRT | 3.17
75 | KPYTDSVCGKSFSRTTCLFLHLRT | 1.96
76 | KPYTCSVCGKSFSNTTCLFLHLRT | 3.12
77 | KPYTCSVCGKSFSMTTCLFLHLRT | 1.68
78 | KPYTCSVCGKSFSDTTCLFLHLRT | 3.85
79 | KPYTCSVCGKSFSITTCLFLHLRT | 2.66
80 | KPYTCSVCGKSFSYTTCLFLHLRT | 1.93
81 | KPYTCSVCGKSFSGTTCLFLHLRT | 1.89
82 | KPYTCSVCGKSFSLTTCLFLHLRT | 1.65
83 | KPYTCSVCGKSFSQTTCLFLHLRT | 3.25
84 | KPYTCAVCGKSFSRTTCLFLHLRT | 2.4
85 | KPYTCHVCGKSFSRTTCLFLHLRT | 2.15
86 | KPYTCPVCGKSFSRTTCLFLHLRT | 2.25
87 | KPYTCKVCGKSFSRTTCLFLHLRT | 2.46
88 | KPYTCEVCGKSFSRTTCLFLHLRT | 1.85
89 | KPYTCTVCGKSFSRTTCLFLHLRT | 1.73
90 | KPYTCDVCGKSFSRTTCLFLHLRT | 2.28
91 | KPYTCMVCGKSFSRTTCLFLHLRT | 1.63
92 | KPYTCQVCGKSFSRTTCLFLHLRT | 2.13
93 | KPYTCCVCGKSFSRTTCLFLHLRT | 1.71
94 | KPYTCNVCGKSFSRTTCLFLHLRT | 2.39
